Assay results from publication PMC9409550 (PLoS ONE, 2022).

Columns and labels:
Test in all cases: flow cytometry on cells
Details in all cases: one partner purified
[1] = biological target: RsSHC014 RBD, yeast-displayed (bat sarbecovirus RsSHC014, UniProt U5WLK5 318-517)
[2] = biological target: LYRa11 RBD, yeast-displayed (bat sarbecovirus LYRa11)
[3] = biological target: RaTG13 RBD, yeast-displayed (bat sarbecovirus RaTG13)
[4] = biological target: SARS-CoV-1 (Urbani) RBD, yeast-displayed (SARS-CoV-1 (Urbani))
[5] = biological target: Rs7327 RBD, yeast-displayed (bat sarbecovirus Rs7327)
[6] = biological target: Rs4231 RBD, yeast-displayed (bat sarbecovirus Rs4231)
[7] = biological target: Rs4048 RBD, yeast-displayed (bat sarbecovirus Rs4048)
[8] = biological target: SARS-CoV-2 Wuhan-Hu-1 RBD, yeast-displayed (SARS-CoV-2, UniProt P0DTC2 330-530)

B1: CDY14HL-Fc1 (Fc fusion)
chain: QSTIEEQAKTFLDMFNHKAEDLFYQSSLAAWNYNTNITEENVQNMNNAGDKWSAFLKEQSTFAQMYPLQEIQNPTVKLQLQALQQNGSSVLSEDKSKRLNTILNTMSTIYSTGKVCNPDNPQECLLLEPGLNEIMANSLDYNERLWAWESWRSEVGKQLRPLYEEYVVLKNEMARANHYEDYGDYWRGDYEVNGVDGYDYSRGQLIEDVEHTFEEIKPLYEHLHAYVRAKLMNAYPSYISPIGCLPAHLLGDMWGRFWTNLYSLTVPFGQKPNIDVTDAMVDQAWDAQRIFKEAEKFFVSVGLPNMTQGFWEYSMLTDPGNVQKAVCLPTAWDLGKGDFRILMCTKVTMDDFLTAHHEMGHIQYDMAYAAQPFLLRNGANEGFHEAVGEIMSLSAATPKHLKSIGLLSPDFQEDNETEINFLLKQALTIVGTLPFTYMLEKWRWMVFKGEIPKDQWMKKWWEMKREIVGVVEPVPHDETYCDPASLFHVSNDYSFIRYYTRTLYQFQFQEALCQAAKHEGPLHKCDISNSTEAGQKLFNMLRLGKSEPWTLALENVVGAKNMNVRPLLNYFEPLFTWLKDQNKNSFVGWSTDWSPYAD
Question: With B1 as the binder, how does the Kd [1] read?
Answer: 0.31 nM

Question: And the Kd [2]?
Answer: 0.29 nM

Question: And the Kd [3]?
Answer: 1.4 nM

Question: And the Kd [4]?
Answer: 0.25 nM

Question: And the Kd [5]?
Answer: 0.31 nM

Question: What about the Kd [6] of the same binder?
Answer: 0.3 nM

Question: And the Kd [7]?
Answer: 0.31 nM

Question: And the Kd [8]?
Answer: 0.14 nM
